This assay has as its target NM fibers (amyloid fibers of NM; also used sonicated as seed) (Saccharomyces cerevisiae) (UniProt P05453). Nature of the assay: seeded fiber elongation, sedimentation and acrylodan wavelength shift assays, Lineweaver-Burk plot.

Chain of NM fibers (amyloid fibers of NM; also used sonicated as seed) (Saccharomyces cerevisiae) (P05453 1-253): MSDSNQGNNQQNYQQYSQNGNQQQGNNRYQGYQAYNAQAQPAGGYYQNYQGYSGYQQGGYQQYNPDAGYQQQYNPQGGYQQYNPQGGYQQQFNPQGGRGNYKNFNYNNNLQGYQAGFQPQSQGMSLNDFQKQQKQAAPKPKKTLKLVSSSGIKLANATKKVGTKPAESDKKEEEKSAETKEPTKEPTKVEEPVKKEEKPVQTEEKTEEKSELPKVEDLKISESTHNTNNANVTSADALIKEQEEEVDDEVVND

By Km is commonly meant the concentration of substrate that gives half-maximal velocity. For “NM^T158C-acrylodan (soluble) (from UniProt P05453 1-253) (other; other documents disagree on this pair)”, the Km worked out at 0.12 µM and the kconf/Km (conformational conversion efficiency) amounted to 42000 M⁻¹ s⁻¹.
